# Laboratory results from patent US11161908.
# Biological target: human BAFF-R-GFP fusion protein expressed on the surface of mouse fibroblast (L) cells, clone D2C (human) (UniProt Q96RJ3)
# Assay: flow cytometry, recombinant BAFF at 0.5 ug/10^6 D2C L cells, detected with anti-BAFF-PE, no antibody; unstained cells: 0.0217
substance,measurement,value
recombinant BAFF ligand (from UniProt Q9Y275 134-285),percent of cells in the BAFF-PE gate,59.6%
